Key:
[1] = target: T1, His-MB (AnkG MB domain, aa 2–791, His-tagged) (UniProt O70511 2-791); experiment: SPR
T1 sequence (looked up): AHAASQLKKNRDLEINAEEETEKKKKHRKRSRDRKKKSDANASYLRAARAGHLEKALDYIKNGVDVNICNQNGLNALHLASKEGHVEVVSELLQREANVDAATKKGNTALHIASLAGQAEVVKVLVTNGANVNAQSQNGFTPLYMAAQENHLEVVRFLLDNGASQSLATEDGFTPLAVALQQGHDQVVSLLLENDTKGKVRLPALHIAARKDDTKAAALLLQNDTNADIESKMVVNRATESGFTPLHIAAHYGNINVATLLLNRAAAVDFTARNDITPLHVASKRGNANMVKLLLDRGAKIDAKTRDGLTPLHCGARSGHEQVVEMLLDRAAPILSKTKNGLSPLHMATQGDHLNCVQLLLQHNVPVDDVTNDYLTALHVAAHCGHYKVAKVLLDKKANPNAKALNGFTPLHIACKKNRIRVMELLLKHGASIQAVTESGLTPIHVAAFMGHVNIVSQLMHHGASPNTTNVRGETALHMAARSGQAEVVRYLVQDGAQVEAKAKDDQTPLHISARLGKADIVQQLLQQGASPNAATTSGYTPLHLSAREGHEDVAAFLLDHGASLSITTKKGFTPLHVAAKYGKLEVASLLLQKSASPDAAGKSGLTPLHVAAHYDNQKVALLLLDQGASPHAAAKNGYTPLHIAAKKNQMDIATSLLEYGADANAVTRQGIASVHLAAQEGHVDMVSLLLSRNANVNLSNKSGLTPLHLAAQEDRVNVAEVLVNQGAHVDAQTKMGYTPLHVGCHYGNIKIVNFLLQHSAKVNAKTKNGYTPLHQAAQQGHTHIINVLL

[2] = target: T2, His-AR1 (AnkG aa 2–236, His-tagged) (UniProt O70511 2-236); experiment: SPR
T2 sequence (looked up): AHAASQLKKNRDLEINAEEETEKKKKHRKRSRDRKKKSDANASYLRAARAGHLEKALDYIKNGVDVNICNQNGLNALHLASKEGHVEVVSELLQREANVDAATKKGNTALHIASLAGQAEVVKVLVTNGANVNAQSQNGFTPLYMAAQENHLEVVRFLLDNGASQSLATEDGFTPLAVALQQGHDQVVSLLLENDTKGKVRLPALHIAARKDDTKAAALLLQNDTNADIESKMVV

Kd [1]: 0.0024 µM | koff [1]: 0.00059 s⁻¹ | kon [1]: 290000 M⁻¹ s⁻¹ | Kd [2]: 0.048 µM | koff [2]: 0.0014 s⁻¹ | kon [2]: 32000 M⁻¹ s⁻¹
B1: GST-Tail (GST-tagged KIF5B tail, aa 758–963) (domain or fragment)
chain: not shown

From article PMC3970081 (Developmental cell, 2014)
